“Also recorded” adds a separate entry of the source.
Experiments:
[1] = tested on: desMet-G-CSF; assay: Digestion of desMet-G-CSF with DPPIV; conditions: overnight 37° C., E/S 1/20 (w:w)
[2] = tested on: gliadin 33 mer; assay: Digestion of gliadin 33 mer (RP-HPLC, ESI-MS); type: biochemical, wheat
[3] = tested on: gliadin 14 mer PQPQLPYPQPQLPY; type: biochemical, wheat; conditions: 4 h, 37° C., 1 mM CoCl2, pH7.2
[4] = Enzymatic activity of T. rubrum AMPP at various pH values (FIG. 4); type: biochemical
Description: FIG. 4 is a graph of the enzymatic activity of T. rubrum AMPP (aminopeptidase P) at various pH values. It appears that AMPP has activity over a broad range of pH values, from pH 6 to 11.

[5] = Enzymatic activity of T. rubrum AMPP at various temperatures (FIG. 5); type: biochemical
Description: FIG. 5 is a graph of the enzymatic activity of T. rubrum AMPP at various temperatures.

[6] = Aminopeptidase activity assay with fluorogenic aminoacyl-AMC substrates; type: biochemical
Protocol: (§1) Aminopeptidase activity was determined using different fluorogenic aminoacyl-4-methylcoumaryl-7-amide derivatives of peptides and the internally quenched fluorogenic substrate Lys(Abz)-Pro-Pro-pNA for specific determination of aminopeptidase P activity. Stockel et al, Adv Exp. Med. Biol. 421:31-35 (1997). All substrates were from Bachem (Bubendorf, Switzerland). Substrate stock solutions were prepared at 0.1 M according to the recommendations of the manufacturer and stored at −20° C. The reaction mixture contained a concentration of 5 mM substrate and enzyme preparation (between 56 and 2,662 ng per assay depending on the cleavage activity of each enzyme for the substrates) in 25 μl of 50 mM Tris-HCl buffer adjusted at the optimal pH for each LAP (between 7 and 8). After incubation at 37° C. for 60 min, the reaction was terminated by adding 5 μl of glacial acetic acid and the reaction mixture was diluted with 3.5 ml of water. The released 7-amino-4-methylcoumarin (AMC) was measured using a spectrofluorophotometer (Perkin Elmer LS-5 fluorometer, Zurich, Switzerland) at an excitation wavelength of 370 nm and an emission wavelength of 460 nm. A standard curve made with synthetic AMC was used to assess the released AMC. The released diprolyl-p-nitroanilide was measured at an excitation wavelength of 310 nm and an emission wavelength of 410 nm. The LA activities were expressed in mnoles of released AMC or pNA/min/μg protein.
Table 15 details the hydrolytic activity of different LAPs toward various aminoacyl-MCA comparison (%) to Leu-MCA used as a standard.

[7] = tested on: Ala-proNPY; assay: Digestion of Ala-proNPY with ruLAP2; type: biochemical; conditions: overnight 37° C.
Protocol: The digested material was isolated by RP-HPLC and characterized by ESI-MS. […] The same result is obtained at an 1:[…] ratio. Digestion halts when the enzyme reaches a Xaa-Pro-motif, which in case of proNPY is Tyr-Pro. Conditions of incubation were the same as for Gly-Ser-proNPY.

[8] = Aminopeptidase P activity assay; type: biochemical; conditions: substrate Lys(Abz)-Pro-Pro-pNA, 5 mM, 37° C., 60 min
Protocol: as §1

[9] = tested on: denatured casein; assay: Digestion of full-length polypeptide chain (denatured casein); type: biochemical; conditions: partially purified, in the presence of a trypsin-like endoprotease from the P. pastoris expression system

ruDPPIV: T. rubrum dipeptidylpeptidase IV, 775 amino acid residues (SEQ ID NO: 35)
cleavage of N-terminal dipeptide from desMet-G-CSF [1]: Traces of undigested material are still present
digestion of the 33 mer ([2]; 37° C., 1 mM CoCl2, pH7.2): not a substrate
digestion of the 14 mer [3]: not able to hydrolyse the peptide

B1: AMPP: T. rubrum aminopeptidase P (SEQ ID NO: 24) (protein, listed as Trichophyton rubrum)
chain: MPPPPVDTTQRLAKLRELMAQNKVDVYIVPSEDSHQSEYIAPCDGRRAFISSFTGSAGCAIVSMSKAALSTDGRYFSQAAKQLDANWILLKRGVEGVPTWEEWTAEQAETRQGCGSDARKLSQTLKTTGGSLVGIDQNLIDAVWGDERPARPANQITVQPVERAGKSFEEKVEDLRKELTAKKRSAMVISSKFLYKWYLSLYTKSHADWCSIPYNPVFFSYAIVTPSVAELYVDESKLSPEARKHLEGKVVLKPYESIFQASKVLAESKASASSGSSGKFLLSNKASWSLSLALGGEQNVVEVRSPITDAKAIKNEVELEGFRKCHIRDGAALIEYFAWLENALIKEGAKLDEVDGADKLFEIRKKYDLFVGNSFDTISSTGANGATIHYKPEKSTCAIIDPKAMYLCDSGGQYLDGTTDTTRTLHFGEPTEFQKKAYALVLKGHISIDNAIFPKGTTGYAIDSFARQHLWKEGLDYLHGTGHGVGSFLNVHEGPMGIGSRAQYAEVPLSASNSLDIMKTATSAFVSRVSSMTAYSSFFILTASLDLVICKEVQTAHKFGDKPFLGFESITLVPFCQKLLDASLLTEAERKWVNDYHAKVWEKTSPFFEKDELTTAWLKRETQPI
pH range of activity [4]: 6 to 11 pH
optimal temperature [5]: 50 C
temperature range of activity [5]: 25 to 60 C

B2: ruLAP2: T. rubrum leucine aminopeptidase, 495 amino acid residues (SEQ ID NO: 3) (protein, listed as Trichophyton rubrum)
chain: MKSQLLSLAVAVTTISQGVVGQEPFGWPFKPMVTQDDLQNKIKLKDIMAGVEKLQSFSDAHPEKNRVFGGNGHKDTVEWIYNEIKATGYYDVKKQEQVHLWSHAEAALNANGKDLKASAMSYSPPASKIMAELVVAKNNGCNATDYPANTQGKIVLVERGVCSFGEKSAQAGDAKAAGAIVYNNVPGSLAGTLGGLDKRHVPTAGLSQEDGKNLATLVASGKIDVTMNVISLFENRTTWNVIAETKGGDHNNVIMLGAHSDSVDAGPGINDNGSGSIGIMTVAKALTNFKLNNAVRFAWWTAEEFGLLGSTFYVNSLDDRELHKVKLYLNFDMIGSPNFANQIYDGDGSAYNMTGPAGSAEIEYLFEKFFDDQGIPHQPTAFTGRSDYSAFIKRNVPAGGLFTGAEVVKTPEQVKLFGGEAGVAYDKNYHRKGDTVANINKGAIFLNTRAIAYAIAEYARSLKGFPTRPKTGKRDVNPQYSKMPGGGCGHHTVFM
hydrolysis of Leu-AMC [6]: efficiently hydrolyzed
hydrolytic activity toward Ala-AMC in comparison (%) to Leu-MCA ([6]; substrate Ala-AMC, 5 mM, 37° C., 60 min): 33.3%
hydrolytic activity toward Arg-AMC in comparison (%) to Leu-MCA ([6]; substrate Arg-AMC, 5 mM, 37° C., 60 min): 1.9%
hydrolytic activity toward Asn-AMC in comparison (%) to Leu-MCA ([6]; substrate Asn-AMC, 5 mM, 37° C., 60 min): 114.6%
hydrolytic activity toward Asp-AMC in comparison (%) to Leu-MCA ([6]; substrate Asp-AMC, 5 mM, 37° C., 60 min): 3.8%
hydrolytic activity toward Cys-AMC in comparison (%) to Leu-MCA ([6]; substrate Cys-AMC, 5 mM, 37° C., 60 min): 14.9%
hydrolytic activity toward Gln-AMC in comparison (%) to Leu-MCA ([6]; substrate Gln-AMC, 5 mM, 37° C., 60 min): 49.9%
hydrolytic activity toward Glu-AMC in comparison (%) to Leu-MCA ([6]; substrate Glu-AMC, 5 mM, 37° C., 60 min): 3.7%
hydrolytic activity toward Gly-AMC in comparison (%) to Leu-MCA ([6]; substrate Gly-AMC, 5 mM, 37° C., 60 min): 3.3%
hydrolytic activity toward Gly-Pro-AMC in comparison (%) to Leu-MCA ([6]; substrate Gly-Pro-AMC, 5 mM, 37° C., 60 min): 7.2%
hydrolytic activity toward His-AMC in comparison (%) to Leu-MCA ([6]; substrate His-AMC, 5 mM, 37° C., 60 min): 0.6%
hydrolytic activity toward Hyp-AMC in comparison (%) to Leu-MCA ([6]; substrate Hyp-AMC, 5 mM, 37° C., 60 min): 14.2%
hydrolytic activity toward Ile-AMC in comparison (%) to Leu-MCA ([6]; substrate Ile-AMC, 5 mM, 37° C., 60 min): 6.4%
hydrolytic activity toward Leu-AMC in comparison (%) to Leu-MCA used as a standard ([6]; substrate Leu-AMC (standard), 5 mM, 37° C., 60 min): 100.0%
hydrolytic activity toward Lys-AMC in comparison (%) to Leu-MCA ([6]; substrate Lys-AMC, 5 mM, 37° C., 60 min): 4.6%
hydrolytic activity toward Met-AMC in comparison (%) to Leu-MCA ([6]; substrate Met-AMC, 5 mM, 37° C., 60 min): 119.7%
hydrolytic activity toward Phe-AMC in comparison (%) to Leu-MCA ([6]; substrate Phe-AMC, 5 mM, 37° C., 60 min): 17.1%
hydrolytic activity toward Pro-AMC in comparison (%) to Leu-MCA ([6]; substrate Pro-AMC, 5 mM, 37° C., 60 min): 21.4%
hydrolytic activity toward Pyr-AMC in comparison (%) to Leu-MCA ([6]; substrate Pyr-AMC, 5 mM, 37° C., 60 min): 0.0%
hydrolytic activity toward Ser-AMC in comparison (%) to Leu-MCA ([6]; substrate Ser-AMC, 5 mM, 37° C., 60 min): 26.1%
hydrolytic activity toward Thr-AMC in comparison (%) to Leu-MCA ([6]; substrate Thr-AMC, 5 mM, 37° C., 60 min): 0.9%
hydrolytic activity toward Val-AMC in comparison (%) to Leu-MCA ([6]; substrate Val-AMC, 5 mM, 37° C., 60 min): 4.8%
partial degradation of the 33 mer ([2]; within 4 h): less than 50%
digestion of the 14 mer [3]: not digested; also recorded: results only in the cleavage of the N-terminal Proline
removal of N-terminal alanine from Ala-proNPY [7]: almost totally removed
hydrolytic activity toward Lys(Abz) Pro-PropNA in comparison (%) to Leu-MCA [8]: 0.0%
digestion of denatured casein [9]: sequentially digest a full-length polypeptide chain, such as denatured casein
